Results on 94 variants are retold here after the supplement of paper PMC10567573.

Sequences and labels used below:
B1: KCNAB2 (parent)
chain: IPPYSRASLKGYQWLKDKILSEEG
B2: SPSB4 (parent)
chain: LDMDEGTLSFIVDGQYLGVAFRGL
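Note: lentivirally expressed fusions sorted by FACS into six bins by GFP to DsRed ratio, PSI derived from sequencing read proportions per bin multiplied by bin number.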

Variants of B1 are the subject of one data set. Description: protein stability index of a GFP-peptide fusion (GPS, HEK-293T) (PSI 1-6); higher = more stable. As to conditions: c terminus: a fixed tail appended.
In the case of IPPYSVASLKGYQWLKDKILSEEG [R6V], the protein stability index was 1.7.

Regarding IPPYSEASLKGYQWLKDKILSEEG [R6E], the protein stability index was 3.93.

For the variant IPPYSMASLKGYQWLKDKILSEEG [R6M], the protein stability index is 1.95.

As to IPPYSPASLKGYQWLKDKILSEEG [R6P], the protein stability index was 2.67.

IPPYSQASLKGYQWLKDKILSEEG [R6Q]: the protein stability index is 3.23.

IPPYSRASLKGYQWLKDKFLSEEG [I19F]: the protein stability index was 2.21.

Turning to IPPYSRASLKGYQWLKDKQLSEEG [I19Q], the protein stability index was 2.12.

Turning to IPPYSRASLKGYQWLKDKYLSEEG [I19Y], the protein stability index was 2.58.

As to IPPYSRASLKGYQWLKDKTLSEEG [I19T], the protein stability index was 3.4.

Regarding IPPYSRASLKGYQWLKDKPLSEEG [I19P], the protein stability index was 3.8.

Take IPPYSRASLKGYQWLKDKALSEEG [I19A]: the protein stability index worked out at 2.57.

IPPYSRASLKGYQWLKDKLLSEEG [I19L]: the protein stability index came out at 2.86.

Turning to IPPYSRASLKGYQWLKDKNLSEEG [I19N], the protein stability index worked out at 2.86.

As to IPPYSRASLKGYQWLKDKHLSEEG [I19H], the protein stability index amounted to 2.98.

Turning to IPPYSRASTKGYQWLKDKILSEEG [L9T], the protein stability index stood at 3.14.

With IPPYSRASEKGYQWLKDKILSEEG [L9E], the protein stability index worked out at 3.2.

Consider IPPYSRASLKGYQWLKDKILSEYG [E23Y], for which the protein stability index worked out at 2.18.

For the variant IPPYSRASLKGYQWLKDKILSESG [E23S], the protein stability index came out at 4.83.

With IPPYSRASLKGYQWLKDKILSERG [E23R], the protein stability index was 2.43.

For the variant IPPYSRASLKGYQWLKDKILSEMG [E23M], the protein stability index is 2.31.

Take IPPYSRASLKGYQWLKDKILSENG [E23N]: the protein stability index was 2.

In the case of IPPYSRASLKWYQWLKDKILSEEG [G11W], the protein stability index is 3.38.

Consider IPPYSRASLKKYQWLKDKILSEEG [G11K], for which the protein stability index was 1.78.

In the case of IPPYSRASLKNYQWLKDKILSEEG [G11N], the protein stability index came out at 2.68.

As to IPPYSRASLKQYQWLKDKILSEEG [G11Q], the protein stability index came to 2.96.

For IPPYSRASLKIYQWLKDKILSEEG [G11I], the protein stability index was found to be 2.37.

As to IPPYSRASLKSYQWLKDKILSEEG [G11S], the protein stability index is 1.64.

As for IPPYSRASLKEYQWLKDKILSEEG [G11E], the protein stability index is 3.51.

For IPPYSRASLKFYQWLKDKILSEEG [G11F], the protein stability index was 3.33.

On to IPIYSRASLKGYQWLKDKILSEEG [P3I], for which the protein stability index was 2.28.

Turning to IPHYSRASLKGYQWLKDKILSEEG [P3H], the protein stability index was 1.74.

IPQYSRASLKGYQWLKDKILSEEG [P3Q]: the protein stability index is 2.54.

Take IPSYSRASLKGYQWLKDKILSEEG [P3S]: the protein stability index was 2.62.

As for IPPYYRASLKGYQWLKDKILSEEG [S5Y], the protein stability index amounted to 2.79.

In the case of IPPYTRASLKGYQWLKDKILSEEG [S5T], the protein stability index was 2.42.

With IPPYRRASLKGYQWLKDKILSEEG [S5R], the protein stability index came to 1.82.

For IPPYFRASLKGYQWLKDKILSEEG [S5F], the protein stability index stood at 3.12.

IPPYDRASLKGYQWLKDKILSEEG [S5D]: the protein stability index came out at 2.8.

As for IPPYSRASLKGYQWGKDKILSEEG [L15G], the protein stability index is 3.2.

In the case of IPPYSRASLKGYQWPKDKILSEEG [L15P], the protein stability index is 3.61.

As for IPPYSRASLKGYQWQKDKILSEEG [L15Q], the protein stability index was found to be 3.52.

Regarding IPPYSRASLKGYQWHKDKILSEEG [L15H], the protein stability index stood at 3.73.

Turning to IPPYSRASLKGYQWWKDKILSEEG [L15W], the protein stability index turned out to be 2.18.

Take IPPYSRASLKGYQWCKDKILSEEG [L15C]: the protein stability index was 3.47.

Turning to IPPYSRASLKGYQWVKDKILSEEG [L15V], the protein stability index is 2.91.

Take IPPYSRASLKGYQWTKDKILSEEG [L15T]: the protein stability index was 3.08.

In the case of IPPYSRASLKGYQWEKDKILSEEG [L15E], the protein stability index came to 3.19.

Regarding IPPYSRASLKGYQWAKDKILSEEG [L15A], the protein stability index is 3.71.

Take IPPYSRASLKGYQWDKDKILSEEG [L15D]: the protein stability index turned out to be 4.13.

Consider IPPYSRASLKGYQWLKDVILSEEG [K18V], for which the protein stability index amounted to 3.75.

Regarding IPPYSRASLKGYQWLKDDILSEEG [K18D], the protein stability index was 2.77.

In the case of IPPYSRASLKGYQWLKDQILSEEG [K18Q], the protein stability index is 3.23.

For IPPYSRASLKGYQWLKDIILSEEG [K18I], the protein stability index was 1.71.

Take IPPYSRASLKGYQWLKDEILSEEG [K18E]: the protein stability index is 2.95.

With IPPYSRASLKGYQWLKDSILSEEG [K18S], the protein stability index was determined as 3.17.

For IPPYSRASLKGYQWLKDRILSEEG [K18R], the protein stability index amounted to 1.02.

As for IPPYSRASLGGYQWLKDKILSEEG [K10G], the protein stability index was found to be 2.88.

As to IPPYSRASLPGYQWLKDKILSEEG [K10P], the protein stability index was 3.76.

On to IPPYSRASLQGYQWLKDKILSEEG [K10Q], for which the protein stability index was determined as 3.27.

Consider IPPYSRASLWGYQWLKDKILSEEG [K10W], for which the protein stability index turned out to be 2.29.

IPPYSRASLCGYQWLKDKILSEEG [K10C]: the protein stability index was 1.72.

Consider IPPYSRASLNGYQWLKDKILSEEG [K10N], for which the protein stability index was 2.42.

Consider IPPYSRASLDGYQWLKDKILSEEG [K10D], for which the protein stability index was determined as 3.49.

Turning to IPPYSRASLVGYQWLKDKILSEEG [K10V], the protein stability index stood at 2.14.

Another data set covers variants of B2. The data set is described as above. The following applies: c terminus: a fixed tail appended.
For the variant LDMDEGTLSFIVDGQYLGVAFRGD [L24D], the protein stability index was 1.78.

Regarding LDMDEGTLSFIVDGQYLGVAFRGE [L24E], the protein stability index amounted to 1.48.

As for LDMDEGTLSFIVDGQYLGVAFRGK [L24K], the protein stability index turned out to be 1.65.

Take LDMDEGTLSFIVDGQYLGVAFRGH [L24H]: the protein stability index came to 3.29.

Regarding LDMDEGTLSFIVDGQYLGVAFRGF [L24F], the protein stability index was determined as 3.21.

LDMDEGTLSFIVDGQYLGVAFRGM [L24M]: the protein stability index turned out to be 1.84.

As to LDMDEGTLSFIVDGQYLGVAFRGG [L24G], the protein stability index was determined as 1.69.

Turning to LDMDEGTLSFIVDGQYLGVAFRGT [L24T], the protein stability index amounted to 2.67.

Take LDMDEGTLSFIVDGQYLGVAFRGY [L24Y]: the protein stability index was determined as 2.76.

Regarding LDMDEGTLSFIVDGQYLGVAFRGS [L24S], the protein stability index came out at 1.88.

On to LDMDEGTLSFIVDGQYLGVAFRGP [L24P], for which the protein stability index stood at 2.78.

On to LDMDEGTLSFIVDGQYLGVAFRGR [L24R], for which the protein stability index was 2.11.

In the case of LDMDEGTLSFIVDGQYLGVAFRGC [L24C], the protein stability index was 2.43.

As to LDMDEGTLSFIVDGQYLGVAFRGN [L24N], the protein stability index was determined as 2.19.

For LDMDEGTLSFIVDGQYLGVAFRGQ [L24Q], the protein stability index amounted to 2.6.

For LDMDEGTLSFIVDGQYLGVAFRGW [L24W], the protein stability index turned out to be 2.54.

LDMDEGTLSFIVDGQYLGVAFRGI [L24I]: the protein stability index turned out to be 3.11.

Consider LDMDEGTLSFIVDGQYLGVAFRGV [L24V], for which the protein stability index is 3.18.

For the variant LDMDEGTLSFIVDGQYLGVAFRGA [L24A], the protein stability index amounted to 1.22.

As to LDMDEGTLSFIVDGQYLGVAFRTL [G23T], the protein stability index came to 2.5.

In the case of LDMDEGTLSFIVDGQYLGVAFRKL [G23K], the protein stability index was 1.97.

As to LDMDEGTLSFIVDGQYLGVAFRRL [G23R], the protein stability index amounted to 1.88.

For the variant LDMDEGTLSFIVDGQYLGVAFRIL [G23I], the protein stability index worked out at 2.48.

With LDMDEGTLSFIVDGQYLGVAFRSL [G23S], the protein stability index stood at 3.28.

Take LDMDEGTLSFIVDGQYLGVAFRWL [G23W]: the protein stability index came to 4.

Regarding LDMDEGTLSFIVDGQYLGVAFRNL [G23N], the protein stability index stood at 2.38.

With LDMDEGTLSFIVDGQYLGVAFRVL [G23V], the protein stability index was 3.48.

On to LDMDEGTLSFIVDGQYLGVAFRQL [G23Q], for which the protein stability index was 1.47.

As for LDMDEGTLSFIVDGQYLGVAFRPL [G23P], the protein stability index was found to be 2.1.

In the case of LDMDEGTLSFIVDGQYLGVAFRML [G23M], the protein stability index was found to be 2.84.
